# Measured values taken from article PMC5027616, “IL-13Rα2 uses TMEM219 in chitinase 3-like-1-induced signalling and effector responses” (Nature Communications, 2016).
# B1: His-tagged human TMEM219 (natural protein, UniProt Q86XT9 39-240, looked up)
# chain: SFLLTHRTGLRSPDIPQDWVSFLRSFGQLTLCPRNGTVTGKWRGSHVVGLLTTLNFGDGPDRNKTRTFQATVLGSQMGLKGSSAGQLVLITARVTTERTAGTCLYFSAVPGILPSSQPPISCSEEGAGNATLSPRMGEECVSVWSHEGLVLTKLLTSEELALCGSRLLVLGSFLLLFCGLLCCVTAMCFHPRRESHWSRTRL
# notes: also called recombinant human (rh) TMEM219; rTMEM219; source: HEK293T cells (pcDNA3.1), purified (Nickel beads)
# Biological target: T1, IL-13Rα2-Chi3l1 complexes (labelled) (UniProt Q14627 27-343; P36222 22-383, BODPY-TRM-X-succinimidyl ester label)
# T1 construct: IL-13 receptor alpha 2, ectodomain; as m13; chitinase 3-like-1; as m12; The legend calls the complexes labelled; also called IL-13Rα2 complexed with Chi3l1; source: both proteins from the baculovirus-insect cell expression system, purified; complex formed before the titration
# T1 sequence (Q14627 27-343, chain 1 of 2): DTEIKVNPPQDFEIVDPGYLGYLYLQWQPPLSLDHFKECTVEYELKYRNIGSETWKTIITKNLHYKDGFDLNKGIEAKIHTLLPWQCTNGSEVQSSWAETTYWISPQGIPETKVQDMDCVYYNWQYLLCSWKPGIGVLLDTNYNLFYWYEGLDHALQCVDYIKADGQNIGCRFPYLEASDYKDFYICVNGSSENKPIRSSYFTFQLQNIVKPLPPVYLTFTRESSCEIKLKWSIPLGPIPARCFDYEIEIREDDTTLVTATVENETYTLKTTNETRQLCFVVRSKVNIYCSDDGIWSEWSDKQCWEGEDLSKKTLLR
# T1 sequence (P36222 22-383, chain 2 of 2): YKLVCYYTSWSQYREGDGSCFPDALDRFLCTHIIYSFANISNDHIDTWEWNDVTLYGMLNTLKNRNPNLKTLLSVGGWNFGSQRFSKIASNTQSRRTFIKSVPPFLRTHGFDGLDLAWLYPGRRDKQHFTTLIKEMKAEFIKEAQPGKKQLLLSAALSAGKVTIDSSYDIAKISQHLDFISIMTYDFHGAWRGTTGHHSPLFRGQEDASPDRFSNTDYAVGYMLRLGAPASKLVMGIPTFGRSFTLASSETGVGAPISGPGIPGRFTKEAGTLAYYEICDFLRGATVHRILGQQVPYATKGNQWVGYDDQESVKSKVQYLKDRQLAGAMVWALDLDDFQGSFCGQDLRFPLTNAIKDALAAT
# Assay: fluorescence polarisation; fluorescence anisotropy; serial dilutions of TMEM219 in 13 nm nanodisc (10 nM-10 μM) added to 10 nM labelled protein or complex; PBS for labelling; empty nanodisc as control
# Settings: both partners purified
binder,measurement,value
B1,Kd,~288 nM
